Laboratory results reported in PMC7854685, “Histone Parylation factor 1 contributes to the inhibition of PARP1 by cancer drugs” (Nature Communications, 2021).
Positions count from the first letter of the chain named. In names and notes the source's numbering stands. Several values for one entry are separate records, joined by “and”; a condition that tells them apart may be missing. Equal entries are not always repeated. Entries after “also recorded” stand apart in the source; their conditions may differ. Where two headings read alike, the source gives them in different places.

B1: HPF1: Histone PARylation factor, protein that binds PARP1 and PARP2 and provides the catalytic base Glu284 (protein)
chain: LRKEVENHYKLSLPEDFYHFWKFCEELDPEKPSDSLSASLGLQLVGPYDILAGKHKTKKKSTGLNFNLHWRFYYDPPEFQTIIIGDNKTQYHMGYFRDSPDEFPVYVGINEAKKNCIIVPNGDNVFAAVKLFLTKKLREITDKKKINLLKNIDEKLTEAARELGYSLEQRTVKMKQRDKKVVTKTFHGAGLVVPVDKNDVGYRELPETDADLKRICKTIVEAASDEERLKAFAPIQEMMTFVQFANDECDYGMGLELGMDLFCYGSHYFHKVAGQLLPLAYNLLKRNLFAEIIEEHLANRSQENIDQLAA
modifications: Alexa647 C2 maleimide label (extent of labeling typically 50-100%); left off: His tag (inferred from the nickel affinity column), end not stated, state not stated
B2: F280A mutant of HPF1: F280A mutant of HPF1 (protein)
chain: B1 chain with F244A

Columns and labels:
[1] = biological target: PARP1 - Nuc165 / PARP1 - p18mer complex (Homo sapiens, UniProt P09874); assay: FRET assay of Alexa647-HPF1 binding to Alexa488-PARP1 with p18mer DNA or Nuc165, with or without olaparib; conditions: for Kd: read-out: KD of HPF1
Description: Excess unincorporated dye from PARP1 was removed by gel filtration chromatography (S-200). The extent of labeling, defined as the ratio of the molar concentration of dye vs. protein, was determined by UV-Vis spectroscopy and was typically 50–100%. […] All concentrations reflect final concentrations in the plate and all samples were diluted in binding buffer. […] Raw fluorescence intensity values were used to correct the FRET signal for the donor bleed-through and for the acceptor direct excitation, as previously described[43].

[2] = biological target: T1, PARP2 (Homo sapiens, UniProt Q9UGN5); assay: Rate of autoPARylation k2[NAD+] (DNA release without PARPi) in presence or absence of HPF1; type: biochemical
T1 construct: Wild-type PARP1 and PARP2 were expressed and purified as previously described; made in house
Description: (§1) Next, 10 µL of PARP1 or PARP2 (10 nM) premixed with fluorescein labeled p18mer DNA (5 nM), was added to the various dilutions of PARPi and then incubated for 30 min to ensure complete association. Dissociation of labeled DNA was initiated by addition of 10 µL of NAD^+ (2 mM). All concentrations cited are final concentrations in a volume of 30 µL. […] Kinetic data for a range of different PARPi (20–500 nM) were exported to Prism (GraphPad) and were globally fitted to individual exponentials1 y=y0−y∞*e^−kobsx+y0 with the constraints that y0 (the value of the FP signal at t = 0) and y∞ (the value of the FP signal at t = ∞) are shared for all concentrations of PARPi. […] We emphasize that the same correction is applied to the data for all PARPi.

[3] = biological target: T2, PARP1 (Homo sapiens, UniProt P09874); assay: as above; type: biochemical
T2 construct: Wild-type PARP1 and PARP2 were expressed and purified as previously described; made in house
T2 sequence (P09874 whole entry): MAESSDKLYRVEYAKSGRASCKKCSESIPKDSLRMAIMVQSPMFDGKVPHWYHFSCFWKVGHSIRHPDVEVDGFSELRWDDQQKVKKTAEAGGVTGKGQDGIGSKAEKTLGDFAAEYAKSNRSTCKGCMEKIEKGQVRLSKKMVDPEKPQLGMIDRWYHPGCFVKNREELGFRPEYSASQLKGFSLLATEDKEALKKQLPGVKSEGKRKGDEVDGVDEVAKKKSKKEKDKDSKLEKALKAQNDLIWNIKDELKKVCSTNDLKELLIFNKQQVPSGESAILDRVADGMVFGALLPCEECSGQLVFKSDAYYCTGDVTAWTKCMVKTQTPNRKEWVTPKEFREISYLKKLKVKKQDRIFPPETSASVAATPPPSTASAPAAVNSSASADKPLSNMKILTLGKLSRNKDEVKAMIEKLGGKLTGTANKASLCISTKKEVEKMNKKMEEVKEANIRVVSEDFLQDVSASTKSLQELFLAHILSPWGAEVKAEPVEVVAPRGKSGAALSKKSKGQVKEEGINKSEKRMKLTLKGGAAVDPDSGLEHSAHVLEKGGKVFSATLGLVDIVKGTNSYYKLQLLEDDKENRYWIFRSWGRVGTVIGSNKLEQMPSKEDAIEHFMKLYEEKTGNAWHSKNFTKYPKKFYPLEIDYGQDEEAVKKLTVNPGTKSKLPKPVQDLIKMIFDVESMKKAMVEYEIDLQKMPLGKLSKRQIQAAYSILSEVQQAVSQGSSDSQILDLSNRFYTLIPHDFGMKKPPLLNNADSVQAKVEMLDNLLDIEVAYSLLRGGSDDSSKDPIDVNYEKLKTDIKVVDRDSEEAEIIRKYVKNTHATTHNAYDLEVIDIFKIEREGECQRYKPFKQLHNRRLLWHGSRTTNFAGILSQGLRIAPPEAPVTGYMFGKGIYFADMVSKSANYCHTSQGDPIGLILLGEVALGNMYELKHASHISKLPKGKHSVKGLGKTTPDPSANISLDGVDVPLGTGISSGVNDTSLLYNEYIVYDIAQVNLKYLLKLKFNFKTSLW
Description: as §1

T1 sequence (Q9UGN5 whole entry): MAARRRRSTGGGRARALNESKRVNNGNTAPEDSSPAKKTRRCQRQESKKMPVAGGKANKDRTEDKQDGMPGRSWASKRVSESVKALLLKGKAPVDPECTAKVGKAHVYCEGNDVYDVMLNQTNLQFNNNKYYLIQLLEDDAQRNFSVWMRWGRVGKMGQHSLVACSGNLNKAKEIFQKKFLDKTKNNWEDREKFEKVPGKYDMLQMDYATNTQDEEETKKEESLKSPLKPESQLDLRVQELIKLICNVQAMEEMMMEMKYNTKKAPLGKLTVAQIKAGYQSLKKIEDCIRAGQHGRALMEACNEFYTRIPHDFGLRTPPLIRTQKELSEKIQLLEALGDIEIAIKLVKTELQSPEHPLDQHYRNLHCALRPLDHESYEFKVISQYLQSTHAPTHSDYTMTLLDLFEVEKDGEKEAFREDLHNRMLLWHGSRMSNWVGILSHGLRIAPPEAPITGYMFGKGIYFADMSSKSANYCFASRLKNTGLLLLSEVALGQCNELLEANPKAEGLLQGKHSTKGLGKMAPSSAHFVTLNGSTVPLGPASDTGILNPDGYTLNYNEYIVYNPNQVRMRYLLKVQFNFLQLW
PARP1 - Nuc165 / PARP1 - p18mer complex, sequence (P09874 whole entry): as the sequence (P09874 whole entry) above
PARP1 - Nuc165 / PARP1 - p18mer complex, sequence (Q9NWY4 whole entry partner): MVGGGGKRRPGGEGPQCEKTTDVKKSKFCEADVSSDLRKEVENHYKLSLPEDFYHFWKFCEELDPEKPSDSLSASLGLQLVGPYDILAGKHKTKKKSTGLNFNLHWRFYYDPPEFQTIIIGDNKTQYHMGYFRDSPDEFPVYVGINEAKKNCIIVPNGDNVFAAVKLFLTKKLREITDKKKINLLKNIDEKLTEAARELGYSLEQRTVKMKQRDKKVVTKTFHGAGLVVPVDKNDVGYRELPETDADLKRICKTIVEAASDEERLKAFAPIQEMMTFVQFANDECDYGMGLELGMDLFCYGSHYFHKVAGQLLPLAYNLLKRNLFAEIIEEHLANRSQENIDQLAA

| Molecule | factor tighter binding to PARP1—Nuc165 than to PARP1—p18mer ([1]; no olaparib) | Kd ([1]; PARP1 – p18mer complex, in the presence of olaparib (1 µM)) [nM] | Kd ([1]; PARP1—Nuc165 complex, in the presence of olaparib (1 µM)) [nM] | Kd ([1]; PARP1—Nuc165 complex, no olaparib) [nM] | kobs ([2]; PARP2 + HPF1, replicate fits of the fluorescence polarization time traces (time in s) of sheet SuppFig4CD) | kobs(+HPF1) ([2]; PARP2, no PARPi, 2 mM NAD+) [s⁻¹] | kobs (individual replicates) ([3]; PARP1 +HPF1, no PARPi) | kobs(+HPF1) ([3]; PARP1, no PARPi, 2 mM NAD+) [s⁻¹] | binding to PARP1 – Nuc165 complex ([1]; FRET) |
| --- | --- | --- | --- | --- | --- | --- | --- | --- | --- |
| B1 | 5 | 1200 ± 500 | 229 ± 55 | 790 ± 147 | 0.09827 and 0.07689 and 0.09446 | 0.090 ± 0.011 | 0.019 and 0.025 and 0.031 | 0.025 ± 0.006 | – |
| B2 | – | – | – | – | – | – | – | – | does not bind; also recorded: failed to bind |
